Our source for the Kd values is paper PMC9315659.

Data set [1] deals with T1, S207D LysRS(ΔN65) (human, UniProt Q15046 66-597, S207D). The data set can be described thus: fluorescence anisotropy; 1 mM Mg2+; FA: 20 mM Tris-HCl pH 8, 15 mM NaCl, 35 mM KCl, 1 mM MgCl2, 20 nM RNA (30 nM per supplement), temperature not stated; XL-SHAPE: 20 mM HEPES pH 7.5, 60 mM NaCl. To be noted: protein: recombinant; tags: His; chain copies: 2; label: 3' fluorescein (FTSC); tRNA fold.

Data set [2] has as its target T2, WT LysRS(ΔN65) (human, UniProt Q15046 66-597). The data set is described as above. To be noted: protein: recombinant; tags: His; chain copies: 2; label: 3' fluorescein (FTSC); tRNA fold.
The target in data set [3] is T1, S207D LysRS(ΔN65). The data set can be described thus: fluorescence anisotropy; 1 mM Mg2+. To be noted: protein: recombinant, tags: His, chain copies: 2.
Data set [4] concerns the target T2, WT LysRS(ΔN65). The data set can be described thus: fluorescence anisotropy; 1 mM Mg2+. Particulars: protein: recombinant, tags: His, chain copies: 2.
[5] abbreviates: label: 3' fluorescein (FTSC) on RNA, 21-nt DNA annealed to folded RNA, 1.5x DNA.
[6] abbreviates: label: 3' fluorescein (FTSC) on RNA, 24-nt DNA annealed, extends into TLE stem, 1.5x DNA.
[7] abbreviates: label: 3' fluorescein (FTSC) on RNA, 29-nt DNA annealed, extends into TLE stem, 1.5x DNA.
Setting [8] is: label: 3' fluorescein (FTSC) in FA, folded domain with TLE hairpin.
Where [9] appears, read: label: 3' fluorescein (FTSC) on RNA, 18-nt DNA annealed to PBS of folded RNA, 1.5x DNA.

T1 sequence (Q15046 66-597 S207D): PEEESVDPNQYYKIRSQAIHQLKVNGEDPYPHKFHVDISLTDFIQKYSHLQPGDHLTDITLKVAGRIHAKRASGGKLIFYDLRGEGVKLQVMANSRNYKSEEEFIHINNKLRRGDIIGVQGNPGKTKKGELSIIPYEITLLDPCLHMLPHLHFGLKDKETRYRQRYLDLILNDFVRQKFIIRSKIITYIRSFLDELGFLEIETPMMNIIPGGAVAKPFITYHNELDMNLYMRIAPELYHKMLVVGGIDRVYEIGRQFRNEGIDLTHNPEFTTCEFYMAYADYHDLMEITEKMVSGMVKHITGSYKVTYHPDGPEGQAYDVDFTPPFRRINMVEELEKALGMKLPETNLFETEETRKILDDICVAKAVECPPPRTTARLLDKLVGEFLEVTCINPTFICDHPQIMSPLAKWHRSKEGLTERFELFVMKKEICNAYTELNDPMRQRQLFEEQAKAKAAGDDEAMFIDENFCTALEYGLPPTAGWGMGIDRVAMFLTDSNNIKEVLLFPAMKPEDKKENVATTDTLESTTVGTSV
T2 sequence (Q15046 66-597, stated change not applied): as the sequence (Q15046 66-597 S207D) above, with D142S counted along it

B1: tRNALys3 (structured_RNA)
RNA: GCCCGGAUAGCUCAGUCGGUAGAGCAUCAGACUUUUAAUCUGAGGGUCCAGGGUUCAAGUCCCUGUUCGGGCGCCA
modifications: unmodified transcript
B1: the equilibrium dissociation constant (Kd) with S207D LysRS(ΔN65) [1] is 470 ± 190 nM; in the data set with WT LysRS(ΔN65) [2] it was 407 ± 33 nM.

B2: PBS/TLE105:antiPBS18+3 (mixed)
RNA: GGGCUCUGGUAACUAGAGAUCCCUCAGACCCUUUUAGUCAGUGUGGAAAAUCUCUAGCAGUGGCGCCCGAACAGGGACUUGAAAGCGAAAGUAAAGCCAGAGCCC
DNA: GTCCCTGTTCGGGCGCCACTG
For the molecule B2, the Kd with S207D LysRS(ΔN65) [3] (setting [5]) was 305 ± 75 nM; with WT LysRS(ΔN65) [4] (setting [5]), 488 ± 171 nM.

B3: PBS/TLE105:antiPBS18+6 (mixed)
RNA: B2 RNA
DNA: GTCCCTGTTCGGGCGCCACTGCTA
Turning to B3, the Kd was found to be 590 ± 182 nM in the data set with S207D LysRS(ΔN65) [3] (setting [6]) and 865 ± 379 nM with WT LysRS(ΔN65) [4] (setting [6]).

B4: PBS/TLE105:antiPBS18+11 (mixed)
RNA: B2 RNA
DNA: GTCCCTGTTCGGGCGCCACTGCTAGAGAT
B4: the values for the Kd with S207D LysRS(ΔN65) [3] (setting [7]) and with WT LysRS(ΔN65) [4] (setting [7]) were 949 ± 148 nM and 1010 ± 639 nM, respectively.

B5: PBS/TLE105 (structured_RNA)
RNA: B2 RNA
Take B5: the values for the Kd in the data set with S207D LysRS(ΔN65) [3] (setting [8]) and in the data set with WT LysRS(ΔN65) [4] (setting [8]) were 315 ± 130 nM and 330 ± 115 nM, respectively.

B6: PBS/TLE105:antiPBS18 (mixed)
RNA: B2 RNA
DNA: GTCCCTGTTCGGGCGCCA
On to B6, for which the equilibrium dissociation constant (Kd) was found to be 417 ± 90 nM in the data set with S207D LysRS(ΔN65) [3] (setting [9]) and 240 ± 95 nM with WT LysRS(ΔN65) [4] (setting [9]).
